Data as given in publication PMC7591920, “A protein tertiary structure mimetic modulator of the Hippo signalling pathway” (Nature Communications, 2020).
One block for each binder: values may come before it.

Key:
Assay in all cases: SPR; GST-hTEAD1 and mTEAD4 covalently tethered (NHS/EDC) on CM5 chips, 2000–3000 RU; peptides as analytes, threefold dilutions, typically 30 µM top concentration; 10 mM HEPES, 150 mM NaCl, 0.05% Tween-20, pH 7.4, 0.3% DMSO, 20 °C; steady-state fit, 1:1 model
[1] = target: GST-hTEAD1(209–426) (human) (UniProt P28347)
[2] = target: GST-hTEAD1(209–426) (human), P28347
[3] = target: T1, mouse TEAD4(210–427), as purified (SPR) (mouse), Q62296
T1 chain: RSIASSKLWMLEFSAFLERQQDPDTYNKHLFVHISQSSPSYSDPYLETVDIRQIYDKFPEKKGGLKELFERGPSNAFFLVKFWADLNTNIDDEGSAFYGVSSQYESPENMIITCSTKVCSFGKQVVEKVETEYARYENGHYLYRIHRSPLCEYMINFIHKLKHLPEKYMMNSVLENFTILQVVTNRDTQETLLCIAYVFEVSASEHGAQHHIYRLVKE

Kd [1]: 1.4 µM
B1: VGL4(203–256), full-length VGL4-derived TEAD binding sequence (peptide 1) (peptide)
peptide: DPVVEEHFRRSLGKNYKEPEPAPNSVSITGSVDDHFAKALGDTWLQIKAAKDSA

Kd [2]: > 100 µM | Kd [3]: > 100 µM
Binder: KEPEPAPNSVSITG (modifications not checked) [VGL4 intervening extended stretch peptide (peptide 3), Q80V24 203-256]

Kd [2]: 19.4 µM | Kd [3]: 21.8 µM
Binder: DPVVEEHFRRSLGKNY (modifications not checked) [VGL4 N-terminal α-helix peptide (peptide 2, helix α1), Q80V24 203-256]

Kd [2]: > 100 µM | Kd [3]: > 100 µM
Binder: DTWLQIKAA (modifications not checked) [isolated helix peptide 6 derived from the VGL4 two-helix motif 4, Q80V24 203-256]

Kd [2]: 4.3 µM | Kd [3]: 3.1 µM
Binder: SVDDHFAKALGDTWLQIKAA (modifications not checked) [VGL4 C-terminal two-helix motif peptide (peptide 4, helices α2/α3), Q80V24 203-256]

Kd [2]: > 100 µM | Kd [3]: > 100 µM
Binder: SVDDHFAKALG (modifications not checked) [isolated helix peptide 5 derived from the VGL4 two-helix motif 4, Q80V24 203-256]
